Here are results for 6 molecules from paper doi:10.1101/2022.01.19.476892 (bioRxiv, 2022).

Test [1] has as its target T1, RBD protein of SARS-CoV (Severe acute respiratory syndrome …, UniProt P59594). Put plainly: SPR. (SPR reads the build-up and loss of mass on a sensor chip optically.)
Test [2] deals with T2, SARS-CoV-2 WT RBD protein (residues 319-541) (SARS-CoV-2, UniProt P0DTC2). Kind of test: ELISA. For orientation: In an ELISA, binding on a coated surface is turned into a signal by an enzyme label.
Test [3] has as its target T1, RBD protein of SARS-CoV. Put plainly: cell-based or functional assay.
Test [4] concerns the target T2, SARS-CoV-2 WT RBD protein (residues …). Put plainly: SPR.

B1: VacW-209 (antibody, V domains shown)
VH: QVQLVESGGGVVQPGRSLRLSCAASGFTFSSIAMHWVRQAPGKGLEWVAVMSFDGSIKYYGDSVKGRFTISRDNSKSTLYLQMNSLRAEDTAVYYCARGVQGYYDRSGYYNLDYNYGMDVWGQGTTVTVSS
VL: QSVLTQPPSVSGAPGQRVTISCTGSSSNIGAGYDVHWYQQLPGTAPKLLIYGNSNRPSGVPDRFSGSKSGTSASLAITGLQAEDEADYYCQSYDSSLSGWVFGGGTKLTVL
The Kd is the concentration at which binding is half-saturated. Lower therefore signals higher affinity. The molecule B1 returned a Kd in test [1] of 0.54 nM. Moreover, the binding result in test [2] was “binds”. In addition, the “IC50 of neutralisation of SARS-CoV pseudovirus (HEK-293T-hACE2 cells)” value in test [3] was 0.141 µg/mL.

B2: H014 (antibody, V domains shown)
VH: EVQLVQSGAEVKKPGATVKISCKVSGYSFSNYYIHWVKQAPGKSLEWIGYIDPFNGGTSDNLKFKGAATLTADTSTDTAYMELSSLRSEDTAVYYCARSEYDPYYVMDYWGQGTTVTVSS
VL: IVLTQSPFQSVSPKEKVTITCRASQSISSNLHWYQQKPDQSPKLLIKYASQSISGIPSRFSGSGSGTDFTLTINSLEAEDFGIYFCQQTNFWPYIFGQGTKLEIL
In the case of B2, the binding result in test [4] is “binds”.

B3: EY6A (antibody, V domains shown)
VH: EVQLVESGGGVVQPGRSLRLSCAASAFTFSSYDMHWVRQAPGKGLEWVAVISYDGSNKYYADSVKGRFTISRDNSKNTLYLQMNSLRAEDTAVYYCAKDGGKLWVYYFDYWGQGTLVTVSS
VL: not shown
Consider B3, for which, in test [4], the binding result is listed as “binds”.

B4: C118 (antibody, V domains shown)
VH: QVQLVESGGGVVQPGRSLRLSCAASGFTFSNYAMHWVRQAPGKGLEWVAVISYDGSNKYYADSVKGRFTISRDNSKNTLYLQMNSLRAEDTAIYYCASGYTGYDYFVRGDYYGLDVWGQGTTVTVSS
VL: QPVLTQSPSASASLGASVKLTCTLSSGHSSYAIAWHQQQPEKGPRYLMKLNTDGSHSKGDGIPDRFSGSSSGAERYLTISSLQSEDEADYYCQTWGTGILVFGGGTKLTVL
For B4, in test [4], the binding result is listed as “binds”.

B5: C022 (antibody, V domains shown)
VH: QVQLQESGPGLVKPSETLSVTCTVSGGSISSSRYYWGWIRQPPGKGLEWIGSIYYSGSTYYNPSLKSRVTISVDTSKNQFSLKLSSVTAADTAVYYCARHAAAYYDRSGYYFIEYFQHWGQGTLVTVSS
VL: DIQMTQSPSTLSASVGDSVTITCRASQSISSWLAWYQQKPGKAPKLLIYKASSLESGVPSRFSGSGSGTEFTLTISSLQPDDFATYYCQQYNNYRYTFGQGTKLEIK
Take B5: in test [4], the binding result was “binds”.

B6: S2X35 (antibody, V domains shown)
VH: QVQLVQSGAEVKKPGASVKVSCKASGYTFTNYGISWVRQAPGQGLEWMGWISAYKGNTNYAQKLQGRVTMTTDTSTSTAYMELRSLRSDDTAVYYCARPDYQVLGYDFWIGYYGMDVWGQGTTVIVSS
VL: QSVLTQPPSVSGAPGQRVTISCTGSSSNIGAGYDVHWYQQLPGTAPKLLIYGNTNRPSGVPDRFSGSKSGTSASLAITGLQAEDEADYYCQSYDSSLSGSEVVFGGGTKLTVL
As for B6, the binding result in test [4] is “binds”.
